{"source": "patent US20100322948A1", "about": "“Bone morphogenetic protein (BMP)-binding domains of proteins of the repulsive guidance molecule (RGM) protein family and functional fragments thereof, and use of same” (ABBOTT GMBH & CO. KG, priority 2007, published 2010)", "molecules": {"B1": {"name": "Recombinant human BMP-4 (ligand, UniProt P12644 293-408, looked up)", "chain": "SPKHHSQRARKKNKNCRRHSLYVDFSDVGWNDWIVAPPGYQAFYCHGDCPFPLADHLNSTNHAIVQTLVNSVNSSIPKACCVPTELSAISMLYLDEYDKVVLKNYQEMVVEGCGCR", "notes": "Bought protein; also called hBMP-4"}, "B2": {"name": "47-168-Fc (#786) (Fc fusion)", "chain": "PCKILKCNSEFWSATSGSHAPASDDTPEFCAALRSYALCTRRTARTCRGDLAYHSAVHGIEDLMSQHNCSKDGPTSQPRLRTLPPAGDSQERSDSPEICHYEKSFHKHSATPNYTHCGLFGD", "notes": "Expressed in HEK293F cells; IgK leader left out; also called fragment 0; not shown: Factor Xa site from the vector; human IgG Fc (hIgG lambda hc 257-Stop)"}, "B3": {"name": "Recombinant human BMP-2 (ligand, UniProt P12643 283-396, looked up)", "chain": "QAKHKQRKRLKSSCKRHPLYVDFSDVGWNDWIVAPPGYHAFYCHGECPFPLADHLNSTNHAIVQTLVNSVNSKIPKACCVPTELSAISMLYLDENEKVVLKNYQDMVVEGCGCR", "notes": "Bought protein; also called rhBMP-2; recombinant h BMP-2"}, "B4": {"name": "Fragment 2 (Fc fusion)", "RGM A fragment fused to Fc": "IIFKNFQECVDQKVYQAEMDELPAAFVDGSKNGGDKHGANSLKITEKVSGQHVEIQAKYIGTTIVVR", "notes": "also called 218-284-Fc"}, "B5": {"name": "#789: 266-335 Fc 257 Stop no att (Fc fusion, human, UniProt Q96B86 266-335, looked up)", "RGM A fragment fused to Fc": "SGQHVEIQAKYIGTTIVVRQVGRYLTFAVRMPEEVVNAVEDWDSQGLYLCLRGCPLNQQIDFQAFHTNAE", "notes": "fragment; also called Fragment 3"}, "B6": {"name": "RGMA-Fc: RGM A Fc fusion protein used as comparison for the fragments (protein)", "chain": "PCKILKCNSEFWSATSGSHAPASDDTPEFCAALRSYALCTRRTARTCRGDLAYHSAVHGIEDLMSQHNCSKDGPTSQPRLRTLPPAGDSQERSDSPEICHYEKSFHKHSATPNYTHCGLFGDPHLRTFTDRFQTCKVQGAWPLIDNNYLNVQATNTPVLPGSAATATSKLTIIFKNFQECVDQKVYQAEMDELPAAFVDGSKNGGDKHGANSLKITEKVSGQHVEIQAKYIGTTIVVRQVGRYLTFAVRMPEEVVNAVEDWDSQGLYLCLRGCPLNQQIDFQAFHTNAEGTGARRLAAASPAPTAPETFPYETAVAKCKEKLPVEDLYYQACVFDLLTTGDVNFTLAAYYALEDVKMLHSNKDKLHLYERTRDLPG", "modifications": "left off: a dimerising Fc or GST", "notes": "RGM A Fc fusion protein used as comparison for the fragments"}}, "key": {"47-168-Fc (#786) [1]": {"biological_target": "B2", "assay": "ELISA, 47-168-Fc immobilised, BMP-4 titrated, detection with anti-BMP-4 biotin antibody", "description": "(§1) The test was conducted according to test method 4, variant B above, with immobilization of the fusion proteins (1 mg/mL)."}, "Recombinant human BMP-4 [2]": {"biological_target": "B1", "assay": "ELISA, BMP-4 coated at 2.5 µg/mL, fragment #786-Fc from 0.5 µg/mL in 1:2 dilutions (triple values), detection anti-human Fc biotin 1:200 and Strep POD 1:5000", "from_the_text": "The binding of the fusion proteins was detected using anti-human-antibodies."}, "47-168-Fc (#786) [3]": {"biological_target": "B2", "assay": "ELISA, 47-168-Fc immobilised, BMP-2 titrated, detection with anti-BMP-2 biotin antibody", "description": "as §1"}, "Recombinant human BMP-4 [4]": {"biological_target": "B1", "assay": "ELISA, 218-284-Fc immobilised, BMP-4 titrated, detection with anti-BMP-4 biotin antibody", "description": "as §1"}, "Recombinant human BMP-4 [5]": {"biological_target": "B1", "assay": "ELISA, 266-335-Fc immobilised, BMP-4 titrated, detection with anti-BMP-4 biotin antibody", "description": "as §1"}, "BMP-2": {"biological_target": "T1, BMP-2 (Homo sapiens, UniProt P12643)", "T1 construct": "purchased R&D Systems 355-BM; host or cells: CHO cells (said of #355-BM in the BRE-Luc section)", "T1 sequence (P12643 283-396)": "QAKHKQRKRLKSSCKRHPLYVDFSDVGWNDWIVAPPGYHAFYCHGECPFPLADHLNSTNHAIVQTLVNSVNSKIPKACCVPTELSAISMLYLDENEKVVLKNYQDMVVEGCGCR", "assay": "In vitro interaction test, variant B: immobilized RGMA-Fc fusion proteins, detection of BMP-2 binding", "settings": "Working Example 2, FIG. 4, anti-BMP-2 biotin antibodies", "description": "(§2) Test Method 4: In Vitro Interaction Test for Determining the Interaction between RGMA and BMP-2 and -4\n(§3) The interaction tests were carried out as described below:\n(§4) Variant B: Immobilization of Various RGMA-Fc Fusion Proteins and Detection of the Binding of the BMP-2/ or -4 Protein\n(§5) Immunoplate Cert. MaxiSorp F96 (Nunc, 439454)\n(§6) RGMA-Fc fragments • Volume used: 2.5 μg/mL in Na2CO3; addition: 50 μL per well • 1 hour at 37° C. in damp chamber\n(§7) 3. Washing step: • Wash 3× with PBS/0.02% Tween 20\n(§8) 4. Blocking: • 3% BSA in PBS/0.02% Tween, 1 hour at 37° C. in damp chamber • Addition : 200 μL per well, incubation: 1 hour at 37° C. in damp chamber\n(§9) Recombinant human BMP-2, Catalog No.: 355-BM, Company: R&D Systems; or\n(§10) Recombinant human RGM A, R&D Systems; Prod. #2495-RM,\n(§11) recombinant human BMP-4, Catalog No.: 314-BM, Company: R&D Systems;\n(§12) Concentration in each case: 10 μg/mL\n(§13) Dilution steps: in each case 1:2 with PBS/0.02% Tween 20\n(§14) 6. Washing step: • Wash 3× with PBS/0.02% Tween 20\n(§15) Anti-human BMP-4 biotin antibody; Catalog No.: BAM7572, 1:200 in 1% BSA-PBS-T\n(§16) 8. Washing step: • Wash 3× with PBS/0.02% Tween 20\n10. Washing step: • Wash 3× with PBS/0.02% Tween 20 […]\n(§17) The test was conducted according to test method 4, variant B above, with immobilization of the fusion proteins (1 mg/mL). The binding of BMP-4 and -2 was detected using anti-BMP-4 and anti-BMP-2 biotin antibodies, respectively."}, "BMP-4": {"biological_target": "T2, BMP-4 (Homo sapiens, UniProt P12644)", "T2 construct": "purchased R&D Systems 314-BM", "T2 sequence (P12644 293-408)": "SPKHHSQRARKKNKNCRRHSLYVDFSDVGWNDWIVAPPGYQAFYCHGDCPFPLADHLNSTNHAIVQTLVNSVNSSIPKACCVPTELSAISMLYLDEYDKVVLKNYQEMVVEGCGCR", "assay": "In vitro interaction test, variant B: immobilized RGMA-Fc fusion proteins, detection of BMP-4 binding", "description": "as §2, §3, §4, §5, §6, §7, §8, §9, §10, §11, §12, §13, §14, §15, §16\n10. Washing step: • Wash 3× with PBS/0.02% Tween 20\nImmunoPure TMB substrate kit; (Pierce, #34021) • Development period: approximately 1-30 minutes • 1:1 mixture of […]; addition: 50 μL per well\n12. Stop: • 2.5 M H2SO4; addition: 50 μL per well\nThe test was conducted according to test method 4, variant B above, with immobilization of the fusion proteins (1 mg/mL). The binding of BMP-4 was detected using anti-BMP-4 biotin antibodies.\nas §17"}}}
{"molecule": "B1", "values": [{"measurement": "binding result", "setting": "47-168-Fc (#786) [1]", "value": "binds"}]}
{"molecule": "B2", "values": [{"measurement": "EC50 (read off the curve)", "setting": "Recombinant human BMP-4 [2]", "value": "~5", "unit": "ng/mL"}]}
{"molecule": "B3", "values": [{"measurement": "binding result", "setting": "47-168-Fc (#786) [3]", "value": "binds"}]}
{"molecule": "B4", "values": [{"measurement": "binding result", "setting": "Recombinant human BMP-4 [4]", "value": "no binding"}]}
{"molecule": "B5", "values": [{"measurement": "binding result", "setting": "Recombinant human BMP-4 [5]", "value": "no binding"}]}
{"molecule": "B6", "values": [{"measurement": "binding of BMP-2", "setting": "BMP-2", "value": "Significant binding"}, {"measurement": "binding of BMP-4", "setting": "BMP-4; Working Example 1, FIG. 3, anti-BMP-4 biotin antibodies", "value": "Significant binding"}, {"measurement": "binding of BMP-4", "setting": "BMP-4; Working Example 2, FIG. 4, anti-BMP-4 biotin antibodies", "value": "Significant binding"}]}
